The values below come from patent publication EP3433280B1 (F. Hoffmann-La Roche AG, dated 2023).

This assay addresses T1, HER1 extracellular domain (human, UniProt P00533 25-645).
T1 construct: extracellular domain; also called HER1 coated chip surface
Briefly: SPR (Biacore T100), HER1 extracellular domain amine-coupled to CM5, antibody injected at 3.125-50 nM, 1:1 Langmuir model.

B1: HER1-binding IgG1 antibody GA201 (antibody, V domains shown)
VH: QVQLVQSGAEVKKPGSSVKVSCKASGFTFTDYKIHWVRQAPGQGLEWMGYFNPNSGYSTYAQKFQGRVTITADKSTSTAYMELSSLRSEDTAVYYCARLSPGGYYVMDAWGQGTTVTVSS
VL: DIQMTQSPSSLSASVGDRVTITCRASQGINNYLNWYQQKPGKAPKRLIYNTNNLQTGVPSRFSGSGSGTEFTLTISSLQPEDFATYYCLQHNSFPTFGQGTKLEIKR
notes: IgG1, produced in 293-F cells; also called GA201 parental unmasked antibody; anti HER1 antibody GA201
The molecule B1 displayed a Kd of 1 nM.
